Test [1] deals with Bcl-XL single-cysteine mutant 152C, Alexa647-labelled (human) (UniProt Q07817). Kind of test: FRET or BRET; purified Alexa568-labelled BH3 protein (10 nM) and Alexa647-labelled Bcl-XL (40 nM) with liposomes, ABT-263 titrated in; 37 C, 1 h; relative displacements, not absolute affinity. On the technique in general: Bioluminescence resonance energy transfer reports proximity on the nanometre scale.

In test [2] the target is mCerulean3-Bcl-XL (human) (UniProt Q07817). Nature of the test: FRET or BRET; FLIM-FRET in live MCF-7 cells: mCer3-Bcl-XL or mCer3-Bcl-2 stably expressed (donor), Venus-BH3 protein transiently expressed (acceptor); binding curves of FLIM-FRET efficiency against the Venus:mCer3 intensity ratio, 25 C; untreated, DMSO, 20 uM ABT-263 (18-24 h) or 1.25-20 uM A-1155463, A-1331852, ABT-263; R values interpolated at ratio 0.5 (Bcl-XL) or 0.25 (Bcl-2), ^VBad4E signal subtracted.
Chain of mCerulean3-Bcl-XL (human) (Q07817 whole entry): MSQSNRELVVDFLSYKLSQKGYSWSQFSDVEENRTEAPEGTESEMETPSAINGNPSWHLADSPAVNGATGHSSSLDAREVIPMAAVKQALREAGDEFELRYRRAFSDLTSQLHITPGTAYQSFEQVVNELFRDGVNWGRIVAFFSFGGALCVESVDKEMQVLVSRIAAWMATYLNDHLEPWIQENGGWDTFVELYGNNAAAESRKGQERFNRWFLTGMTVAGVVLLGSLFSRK

Another test addresses mCerulean3-Bcl-2 (human) (UniProt P10415). Described as above.

Experimental findings from paper PMC6414199, “Bim escapes displacement by BH3-mimetic anti-cancer drugs by double-bolt locking both Bcl-XL and Bcl-2” (eLife, 2019) are described below.

Chain of mCerulean3-Bcl-2 (human) (P10415 whole entry): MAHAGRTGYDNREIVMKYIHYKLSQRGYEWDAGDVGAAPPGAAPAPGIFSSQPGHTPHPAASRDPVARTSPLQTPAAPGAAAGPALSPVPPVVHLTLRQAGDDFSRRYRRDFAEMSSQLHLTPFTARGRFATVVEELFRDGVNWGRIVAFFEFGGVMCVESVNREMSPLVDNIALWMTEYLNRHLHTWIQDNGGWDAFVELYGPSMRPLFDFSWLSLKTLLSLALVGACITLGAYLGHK
Chain of Venus-BimEL-dCTS (domain or fragment) (O54918 whole entry, the tested form may be a part): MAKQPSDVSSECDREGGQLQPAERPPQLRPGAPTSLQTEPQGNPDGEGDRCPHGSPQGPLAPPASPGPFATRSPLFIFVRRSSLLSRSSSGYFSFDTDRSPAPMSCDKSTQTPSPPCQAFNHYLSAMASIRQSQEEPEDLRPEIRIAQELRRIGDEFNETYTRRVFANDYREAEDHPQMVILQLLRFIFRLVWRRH
Chain of Venus-BimEL-dN (domain or fragment) (O54918 whole entry, the tested form may be a part): as above
Chain of Venus-BimEL BH3-2A (O54918 whole entry): as the sequence (O54918 whole entry, the tested form may be a part) above
Chain of Bcl-XL single-cysteine mutant 152C, Alexa647-labelled (human) (Q07817 other isoform, or with tags, fused parts or gaps mutant): as the sequence (Q07817 whole entry) above, with V152C counted along it

“Bid single-cysteine mutant 126C (tBid, added as cBid), Alexa568-labelled (domain or fragment)” had an IC50 of ABT-263 for displacing the pair in test [1] of 400 nM.

On to Venus-Bad with the BH3 region of Bim, for which the R (ABT-263), % of FRET signal left with 20 uM ABT-263 was 98% in test [2] and 65.5% with mCerulean3-Bcl-2 (human).

Venus-Bad-Bim BH3-2A: the results for the R (BH3-2A), % of FRET signal of the same construct without BH3-2A (in test [2]; in the test with mCerulean3-Bcl-2 (human)) were 70.2% and 54.9%, respectively.

Take Venus-Bad-Bim-I146Y: the R (ABT-263), % of FRET signal left with 20 uM ABT-263 in test [2] was 83.2%; in the test with mCerulean3-Bcl-2 (human) it was 53.2%.

In the case of Venus-Bad-Bim-I146Y BH3-2A, the R (BH3-2A), % of FRET signal of the same construct without BH3-2A in test [2] was found to be 46.6%.

Venus-Bad-Bim-I146Y-I153M: the R (ABT-263), % of FRET signal left with 20 uM ABT-263 in test [2] stood at 89%; in the test with mCerulean3-Bcl-2 (human), 69.1%.

Turning to Venus-Bad-Bim-I146Y-I153M BH3-2A, the R (BH3-2A), % of FRET signal of the same construct without BH3-2A stood at 56.8% in test [2] and 42.6% with mCerulean3-Bcl-2 (human).

For the substance Venus-Bad-Bim-I146Y-Q148R, the R (ABT-263), % of FRET signal left with 20 uM ABT-263 came to 90.2% in test [2] and 61.8% in the test with mCerulean3-Bcl-2 (human).

Venus-Bad-Bim-I146Y-Q148R BH3-2A: the R (BH3-2A), % of FRET signal of the same construct without BH3-2A came out at 50.5% in test [2] and 37.7% with mCerulean3-Bcl-2 (human).

For the substance Venus-Bad-Bim-I153M, the figures for the R (ABT-263), % of FRET signal left with 20 uM ABT-263 (in test [2]; with mCerulean3-Bcl-2 (human)) were 92.8% and 68.5%, respectively.

As for Venus-Bad-Bim-I153M BH3-2A, the R (BH3-2A), % of FRET signal of the same construct without BH3-2A in test [2] is 96.5%; with mCerulean3-Bcl-2 (human) it was 102%.

For Venus-Bad-Bim-Q148R, the figures for the R (ABT-263), % of FRET signal left with 20 uM ABT-263 (in test [2]; in the test with mCerulean3-Bcl-2 (human)) were 89.8% and 53.5%, respectively.

On to Venus-Bad-Bim-Q148R BH3-2A, for which the R (BH3-2A), % of FRET signal of the same construct without BH3-2A in test [2] was 74.5%; with mCerulean3-Bcl-2 (human), 56.9%.

In the case of “Venus-BimEL BH3-2A (from UniProt O54918-1 1-196) (natural protein)”, the R (BH3-2A), % of FRET signal of the same construct without BH3-2A in test [2] was found to be 81.4%; with mCerulean3-Bcl-2 (human), 66.8%.

For Venus-BimEL with the BH3 region of Bad, the R (ABT-263), % of FRET signal left with 20 uM ABT-263 stood at 60.5% in test [2] and 65.8% in the test with mCerulean3-Bcl-2 (human).

For the substance Venus-BimEL-Bad BH3-2A, the R (BH3-2A), % of FRET signal of the same construct without BH3-2A in test [2] is 26.1%.

As to Venus-BimEL-Bad-dCTS, the values for the R (ABT-263), % of FRET signal left with 20 uM ABT-263 (in test [2]; with mCerulean3-Bcl-2 (human)) were 40.2% and 12.5%, respectively.

Take “Venus-BimEL-I146Y BH3-2A (from UniProt O54918-1 1-196) (natural protein)”: the R (BH3-2A), % of FRET signal of the same construct without BH3-2A in test [2] turned out to be 71%; in the test with mCerulean3-Bcl-2 (human) it was 54.2%.

As to “Venus-BimEL-I146Y-dCTS (domain or fragment)”, the R (ABT-263), % of FRET signal left with 20 uM ABT-263 turned out to be 38.5% in test [2] and 52.9% with mCerulean3-Bcl-2 (human).

Turning to “Venus-BimEL-I181E BH3-2A (from UniProt O54918-1 1-196) (natural protein)”, the R (BH3-2A), % of FRET signal of the same construct without BH3-2A was found to be 49.2% in test [2] and 47.2% with mCerulean3-Bcl-2 (human).

Consider “Venus-BimEL-I188E BH3-2A (from UniProt O54918-1 1-196) (natural protein)”, for which the values for the R (BH3-2A), % of FRET signal of the same construct without BH3-2A (in test [2]; in the test with mCerulean3-Bcl-2 (human)) were 67.2% and 47.5%, respectively.

In the case of “Venus-BimEL-L185A BH3-2A (from UniProt O54918-1 1-196) (natural protein)”, the R (BH3-2A), % of FRET signal of the same construct without BH3-2A in test [2] was found to be 159%.

On to “Venus-BimEL-L185F BH3-2A (from UniProt O54918-1 1-196) (natural protein)”, for which, in test [2], the R (BH3-2A), % of FRET signal of the same construct without BH3-2A was 100%.

In the case of “Venus-BimEL-L185G BH3-2A (from UniProt O54918-1 1-196) (natural protein)”, the R (BH3-2A), % of FRET signal of the same construct without BH3-2A in test [2] was 86.8%.

On to “Venus-BimEL-L185H BH3-2A (from UniProt O54918-1 1-196) (natural protein)”, for which the R (BH3-2A), % of FRET signal of the same construct without BH3-2A in test [2] amounted to 49.1%.

For the substance “Venus-BimEL-L185M BH3-2A (from UniProt O54918-1 1-196) (natural protein)”, in test [2], the R (BH3-2A), % of FRET signal of the same construct without BH3-2A was determined as 90%.

As for “Venus-BimEL-L185P BH3-2A (from UniProt O54918-1 1-196) (natural protein)”, the R (BH3-2A), % of FRET signal of the same construct without BH3-2A in test [2] worked out at 59%.

In the case of “Venus-BimEL-L185R BH3-2A (from UniProt O54918-1 1-196) (natural protein)”, the R (BH3-2A), % of FRET signal of the same construct without BH3-2A in test [2] came to 48.1%.

In the case of “Venus-BimEL-L185S BH3-2A (from UniProt O54918-1 1-196) (natural protein)”, the R (BH3-2A), % of FRET signal of the same construct without BH3-2A in test [2] was determined as 73.5%.

Regarding “Venus-BimEL-V192E BH3-2A (from UniProt O54918-1 1-196) (natural protein)”, the R (BH3-2A), % of FRET signal of the same construct without BH3-2A in test [2] came out at 52.6%; with mCerulean3-Bcl-2 (human) it was 54.5%.

Take Venus-BimEL-dCTS (domain or fragment): the R (ABT-263), % of FRET signal left with 20 uM ABT-263 in test [2] was determined as 69%; in the test with mCerulean3-Bcl-2 (human), 60%.

“Venus-BimEL-dCTS BH3-2A (domain or fragment)”: the R (BH3-2A), % of FRET signal of the same construct without BH3-2A was 15.1% in test [2] and 13.6% with mCerulean3-Bcl-2 (human).

For Venus-BimEL-dN (domain or fragment), the R (ABT-263), % of FRET signal left with 20 uM ABT-263 in test [2] worked out at 90.8%; with mCerulean3-Bcl-2 (human), 90.5%.
